In publication PMC10786891, “Massively parallel profiling of RNA-targeting CRISPR-Cas13d”:
Changes are numbered by the printed parent chain. Numbers in names are those of the source.

B1: target 1 MT 5'PFS UGG 3'PFS UAA (mixed)
RNA 1: CACCCGUGCAAAAAUGCAGGGGUCUAAAACUGAGCGGAUAACCUCUCUAUGG
RNA 2: GGGAAUGGAUCCACAUCUACGAAUUCUGGCCAUAGAGAGGUUAUCCGCUCAUAAAGAUCGGAAGAGCACACGU
B2: target 1 MT 5'PFS GCU 3'PFS CGA (mixed)
RNA 1: B1 RNA 1
RNA 2: B1 RNA 2 with U27G, G28C, G29U, U52C, A53G
B3: target 1 MT 5'PFS UAA 3'PFS AAC (mixed)
RNA 1: B1 RNA 1
RNA 2: B1 RNA 2 with G28A, G29A, U52A, A54C
B4: target 1 MT 5'PFS CCA 3'PFS AAU (mixed)
RNA 1: B1 RNA 1
RNA 2: B1 RNA 2 with U27C, G28C, G29A, U52A, A54U
B5: target 1 MT 5'PFS GUC 3'PFS ACA (mixed)
RNA 1: B1 RNA 1
RNA 2: B1 RNA 2 with U27G, G28U, G29C, U52A, A53C
B6: target 1 MT 5'PFS CCG 3'PFS AUU (mixed)
RNA 1: B1 RNA 1
RNA 2: B1 RNA 2 with U27C, G28C, U52A, A53U, A54U
B7: target 1 MT 5'PFS CCG 3'PFS AUC (mixed)
RNA 1: B1 RNA 1
RNA 2: B1 RNA 2 with U27C, G28C, U52A, A53U, A54C
B8: target 1 MT 5'PFS GUC 3'PFS UAA (mixed)
RNA 1: B1 RNA 1
RNA 2: B1 RNA 2 with U27G, G28U, G29C
B9: target 1 MT 5'PFS UAA 3'PFS AAA (mixed)
RNA 1: B1 RNA 1
RNA 2: B1 RNA 2 with G28A, G29A, U52A
B10: target 1 MT 5'PFS GUU 3'PFS CCG (mixed)
RNA 1: B1 RNA 1
RNA 2: B1 RNA 2 with U27G, G28U, G29U, U52C, A53C, A54G
B11: target 1 MT 5'PFS GCA 3'PFS UUA (mixed)
RNA 1: B1 RNA 1
RNA 2: B1 RNA 2 with U27G, G28C, G29A, A53U
B12: target 1 U11C,C21U (mixed)
RNA 1: B1 RNA 1
RNA 2: B1 RNA 2 with U27G, G28U, G29A, C31U, U41C, U52C, A53C, A54G
B13: target 1 MT 5'PFS GUC 3'PFS UAC (mixed)
RNA 1: B1 RNA 1
RNA 2: B1 RNA 2 with U27G, G28U, G29C, A54C
B14: target 1 MT 5'PFS GCU 3'PFS CGU (mixed)
RNA 1: B1 RNA 1
RNA 2: B1 RNA 2 with U27G, G28C, G29U, U52C, A53G, A54U
B15: target 1 A9U,U19A (mixed)
RNA 1: B1 RNA 1
RNA 2: B1 RNA 2 with U27G, G28U, G29A, U33A, A43U, U52C, A53C, A54G
B16: target 1 C7G,C21A (mixed)
RNA 1: B1 RNA 1
RNA 2: B1 RNA 2 with U27G, G28U, G29A, C31A, C45G, U52C, A53C, A54G
B17: target 1 MT 5'PFS GCU 3'PFS CGC (mixed)
RNA 1: B1 RNA 1
RNA 2: B1 RNA 2 with U27G, G28C, G29U, U52C, A53G, A54C
B18: target 1 MT 5'PFS GAC 3'PFS CUA (mixed)
RNA 1: B1 RNA 1
RNA 2: B1 RNA 2 with U27G, G28A, G29C, U52C, A53U
B19: target 1 MT 5'PFS GUU 3'PFS CCC (mixed)
RNA 1: B1 RNA 1
RNA 2: B1 RNA 2 with U27G, G28U, G29U, U52C, A53C, A54C
B20: target 1 MT 5'PFS GUG 3'PFS GGA (mixed)
RNA 1: B1 RNA 1
RNA 2: B1 RNA 2 with U27G, G28U, U52G, A53G
B21: target 1 MT 5'PFS GAC 3'PFS CUU (mixed)
RNA 1: B1 RNA 1
RNA 2: B1 RNA 2 with U27G, G28A, G29C, U52C, A53U, A54U
B22: target 1 MT 5'PFS GUC 3'PFS UAU (mixed)
RNA 1: B1 RNA 1
RNA 2: B1 RNA 2 with U27G, G28U, G29C, A54U
B23: target 1 MT 5'PFS UAA 3'PFS AAG (mixed)
RNA 1: B1 RNA 1
RNA 2: B1 RNA 2 with G28A, G29A, U52A, A54G
B24: target 1 MT 5'PFS AUG 3'PFS CGG (mixed)
RNA 1: B1 RNA 1
RNA 2: B1 RNA 2 with U27A, G28U, U52C, A53G, A54G
B25: target 1 MT 5'PFS AAG 3'PFS CUC (mixed)
RNA 1: B1 RNA 1
RNA 2: B1 RNA 2 with U27A, G28A, U52C, A53U, A54C
B26: target 1 MT 5'PFS GUC 3'PFS UAG (mixed)
RNA 1: B1 RNA 1
RNA 2: B1 RNA 2 with U27G, G28U, G29C, A54G
B27: target 1 MT 5'PFS AAG 3'PFS CUG (mixed)
RNA 1: B1 RNA 1
RNA 2: B1 RNA 2 with U27A, G28A, U52C, A53U, A54G
B28: target 1 MT 5'PFS GUC 3'PFS ACU (mixed)
RNA 1: B1 RNA 1
RNA 2: B1 RNA 2 with U27G, G28U, G29C, U52A, A53C, A54U
B29: target 1 MT 5'PFS GAC 3'PFS CUG (mixed)
RNA 1: B1 RNA 1
RNA 2: B1 RNA 2 with U27G, G28A, G29C, U52C, A53U, A54G
B30: target 1 MT 5'PFS GUU 3'PFS CCA (mixed)
RNA 1: B1 RNA 1
RNA 2: B1 RNA 2 with U27G, G28U, G29U, U52C, A53C
B31: target 1 MT 5'PFS GCA 3'PFS ACA (mixed)
RNA 1: B1 RNA 1
RNA 2: B1 RNA 2 with U27G, G28C, G29A, U52A, A53C
B32: target 1 MT 5'PFS GAC 3'PFS CUC (mixed)
RNA 1: B1 RNA 1
RNA 2: B1 RNA 2 with U27G, G28A, G29C, U52C, A53U, A54C
B33: target 1 MT 5'PFS GUU 3'PFS CCU (mixed)
RNA 1: B1 RNA 1
RNA 2: B1 RNA 2 with U27G, G28U, G29U, U52C, A53C, A54U
B34: target 1 MT 5'PFS UAA 3'PFS AAU (mixed)
RNA 1: B1 RNA 1
RNA 2: B1 RNA 2 with G28A, G29A, U52A, A54U
B35: target 1 MT 5'PFS GCA 3'PFS UUC (mixed)
RNA 1: B1 RNA 1
RNA 2: B1 RNA 2 with U27G, G28C, G29A, A53U, A54C

Molecular target: T1, EsCas13d, nuclease-dead (Eubacterium siraeum, UniProt B0MS50, R295A;H300A;R849A;H854A)
T1 sequence: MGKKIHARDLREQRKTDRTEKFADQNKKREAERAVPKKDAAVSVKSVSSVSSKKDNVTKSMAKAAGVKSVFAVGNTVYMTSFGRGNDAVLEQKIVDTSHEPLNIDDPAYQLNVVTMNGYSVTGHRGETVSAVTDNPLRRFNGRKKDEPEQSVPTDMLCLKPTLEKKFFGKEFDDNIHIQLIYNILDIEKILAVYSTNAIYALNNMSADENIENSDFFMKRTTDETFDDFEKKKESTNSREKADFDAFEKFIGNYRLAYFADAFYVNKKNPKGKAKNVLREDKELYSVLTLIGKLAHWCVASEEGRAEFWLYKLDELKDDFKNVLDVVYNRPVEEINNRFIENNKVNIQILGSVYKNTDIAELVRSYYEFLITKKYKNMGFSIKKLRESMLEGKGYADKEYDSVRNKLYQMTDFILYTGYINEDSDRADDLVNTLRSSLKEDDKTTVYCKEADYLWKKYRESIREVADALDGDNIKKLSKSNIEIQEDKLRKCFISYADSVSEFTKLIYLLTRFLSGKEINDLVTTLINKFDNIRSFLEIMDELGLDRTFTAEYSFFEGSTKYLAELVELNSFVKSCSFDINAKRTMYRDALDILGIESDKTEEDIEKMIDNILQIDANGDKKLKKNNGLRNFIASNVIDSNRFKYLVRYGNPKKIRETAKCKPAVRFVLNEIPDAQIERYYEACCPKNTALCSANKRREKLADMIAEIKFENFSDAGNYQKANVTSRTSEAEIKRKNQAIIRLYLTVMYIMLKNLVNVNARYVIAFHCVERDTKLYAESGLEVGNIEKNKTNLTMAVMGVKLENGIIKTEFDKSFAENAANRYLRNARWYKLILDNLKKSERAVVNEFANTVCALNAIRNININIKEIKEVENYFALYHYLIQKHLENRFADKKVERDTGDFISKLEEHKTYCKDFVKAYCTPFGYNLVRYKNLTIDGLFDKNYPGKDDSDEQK
Assay: crRNA (strand 1, pre-loaded); Mg2+; 40 mM Tris-HCl pH 7.5, 150 mM NaCl, 6 mM MgCl2, 1 mM DTT, 0.1% Tween-20, 0.2 mg/ml BSA; 25 C; 10 min per concentration, then washed
Conditions: tags: His6-TwinStrep-SUMO cleaved; N-terminal SNAP kept (SNAP-Surface 488); label: 3' end held by stalled T7 RNA polymerase

Binder | Kd [nM]
B1 | 79.5 ± 27.5
B2 | 49.5 ± 17
B3 | 40 ± 11
B4 | 7.3 ± 2.35
B5 | ~56
B6 | 3.75 ± 1.75
B7 | ~8.65
B8 | 16 ± 4.3
B9 | 47 ± 15.5
B10 | 11.2 ± 1.55
B11 | 7.65 ± 1.2
B12 | 9.9 ± 0.4
B13 | 15.1 ± 3.8
B14 | 33.5 ± 8
B15 | 52 ± 10
B16 | 30 ± 2.3
B17 | 42.5 ± 15
B18 | 15.5 ± 5

Binder | Kd [nM]
B19 | 26.5 ± 8.5
B20 | 20.3 ± 2.5
B21 | 12.1 ± 3.65
B22 | 16.1 ± 3.3
B23 | 66 ± 26
B24 | 47.5 ± 22.5
B25 | 38.5 ± 13.5
B26 | 17.6 ± 3.35
B27 | 16 ± 5
B28 | 16.9 ± 2.05
B29 | 19 ± 6.5
B30 | 34 ± 8
B31 | 25.5 ± 4.5
B32 | 24 ± 10
B33 | 11.6 ± 1.9
B34 | 55 ± 16
B35 | 9.95 ± 1.2
